# Experiments:
# Assay type in all cases: cell-based
# LNCaP cells = assay: JNG assay, co-culture with LNCaP cells
# Outline: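 Jurkat NFAT-GFP reporter cells stably expressing lentivirally delivered SARs (puromycin or blasticidin selection) were cocultured with target cells at E:T ~1:2 for ~4–18 h. GFP was read by FACS, and % GFP+ cells were scored against parental reporter cells (+/-, +, 2+…5+ ≈ 5%, 10%, 20%…50%).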
# L363 cells = assay: JNG assay, co-culture with L363 cells
# Outline: (§1)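 Jurkat NFAT-GFP (JNG) cells stably transduced with SARs by lentivirus, with drug selection where the construct carried a resistance gene, then co-cultured with target cells at E:T ~1:2 for ~4–18 h. % GFP-positive cells measured by FACS against parental JNG; +/- to 5+ correspond to ~5–50% GFP-positive.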
# RAJI cells = assay: JNG assay, co-culture with RAJI cells; settings: JNG cells expressing construct, co-culture with Raji
# Outline: as §1
molecule,measurement,setting,value
"SEQ ID NO: 22294: RZIP domain attached directly to truncated TCR chain [hTCRb-wt-opt2-6MD] with a short GS linker, without Ig or long linker (protein) MALPVTALLLPLALLLHAARPQLQLQESGPGLVKPSETLSLTCTVSGDSISSGDYYWGWIRQPPGKGLEWIGHIYYSGVTYYNPSLKSRVTISVDTSRNQFSLKLSSVTAADTAVYYCTREDSSNWRSRGQGTLVTVSSLEGSIPEDTFFPSPESSCDVKLVEKSFETDTNLNFQNLSVIGFRILLLKVAGFNLLMTLRLWSSRAKRSGSGVKQTLNFDLLKLAGDVESNPGPTSATMDWIWRILFLVGAATGAHSEFMDPDLEIRAAFLRQRNTALRTEVAELEQEVQRLENEVSQYETRYGPLGGGKTRGSGRADCGFTSESYQQGVLSATILYEILLGKATLYAVLVSALVLMAMVKRKDSRGRAKRSGSGATNFSLLKQAGDVEENPGPSRGHMTEYKPTVRLATRDDVPRAVRTLAAAFADYPATRHTVDPDRHIERVTELQELFLTRVGLDIGKVWVADDGAAVAVWTTPESVEAGAVFAEIGPRMAELSGSRLAAQQQMEGLLAPHRPKEPAWFLATVGVSPDHQGKGLGSAVVLPGVEAAERAGVPAFLETSAPRNLPFYERLGFTVTADVEVPEGPRTWCMTRKPGA",redirection to LNCaP cells,LNCaP cells; LNCaP (PSMA+) cells in the presence of SAR adaptor CD8SP-PSMA-USC76-chVH-EZIP (SEQ ID NO: 23118),Weaker results
same,GFP induction,"L363 cells; L363 cells (BCMA+), only in the presence of SAR adaptor BCMA-FHVH-74-EZIP (SEQ ID NO: 23119)",Weaker results
22287 (protein) MALPVTALLLPLALLLHAARPACEVQLLESGGGLIQPGGSLRLSCAASGFTFSSHAMTWVRQAPGKGLEWVSAISGSGDYTHYADSVKGRFTISRDNSKNTVYLQMNSLRAEDSAVYYCAKDEDGGSLLGHRGQGTLVTVSSGTGGGGSGGGGSGGGGSEFDIQMTQSPSSLSASVGDRVTITCKASDHINNWLAWYQQKPGQAPKLLIYGATTLETGVPSRFSGSGSGTDYTLTISSLQPEDFATYYCQQSWNTPWTFGQGTKLEIKRLEGQPKANPTVTLFPPSSEELQANKATLVCLISDFYPGAVTVAWKADGSPVKAGVETTKPSKQSNNKYAASSYLSLTPEQWKSHRSYSCQVTHEGSTVEKTVAPTECSGRADCGFTSESYQQGVLSATILYEILLGKATLYAVLVSALVLMAMVKRKDSRGRAKRSGSGATNFSLLKQAGDVEENPGPTSTMDWIWRILFLVGAATGAHSLFNQEVQIPLTESYCGPCPKNWICYKNNCYQFFDESKNWYESQASCMSQNASLLKVYSKEDQDLLKLVKSAHWMGLVHIPTNGSWQWEDGSILSPNLLTIIEMQKGDCALYASSFKGYIENCSTPNTYICMQRTVSGGGGSGGGGSGGGGDLFNQEVQIPLTESYCGPCPKNWICYKNNCYQFFDESKNWYESQASCMSQNASLLKVYSKEDQDLLKLVKSAHWMGLVHIPTNGSWQWEDGSILSPNLLTIIEMQKGDCALYASSFKGYIENCSTPNTYICMQRTVGSGGGGSGGGGSGGGGSFEQVQLQQPGAELVKPGASVKMSCKASGYAFSSYWINWMKQKPGQGLEWIGQIYPGDGDTNYNGKFKGRATLTADTSSSTAYMQLSSLTSEDSAVYFCARSITTVVGCAMDYWGQGTSVTVSSTRASTKGPSVFPLAPSSKSTSGGTAALGCLVKDYFPEPVTVSWNSGALTSGVHTFPAVLQSSGLYSLSSVVTVPSSSLGTQTYICNVNHKPSNTKVDKRVEPKSCIPEDTFFPSPESSCDVKLVEKSFETDTNLNFQNLSVIGFRILLLKVAGFNLLMTLRLWSSRAKRSGSGVKQTLNFDLLKLAGDVESNPGPSRGHMTEYKPTVRLATRDDVPRAVRTLAAAFADYPATRHTVDPDRHIERVTELQELFLTRVGLDIGKVWVADDGAAVAVWTTPESVEAGAVFAEIGPRMAELSGSRLAAQQQMEGLLAPHRPKEPAWFLATVGVSPDHQGKGLGSAVVLPGVEAAERAGVPAFLETSAPRNLPFYERLGFTVTADVEVPEGPRTWCMTRKPGA,NFAT-GFP ASSAY: LNCaP with PSMA-USC76-chVH-G4S-ULBP2-S3,LNCaP cells; LNCaP in presence of SAR adaptor PSMA-USC76-chVH-G4S-ULBP2-S3,"+ (refer to approximately 5%, 10%, 20%, 30%, 40% and 50% GFP positive cells)"
same,NFAT-GFP ASSAY: Raji,RAJI cells,"3+ (refer to approximately 5%, 10%, 20%, 30%, 40% and 50% GFP positive cells)"
same,NFAT-GFP ASSAY: L363,L363 cells; co-culture with L363,"+/- (refer to approximately 5%, 10%, 20%, 30%, 40% and 50% GFP positive cells)"
22293 (protein) MALPVTALLLPLALLLHAARPACMDPDLEIRAAFLRQRNTALRTEVAELEQEVQRLENEVSQYETRYGPLGGGKGTGGGGSGGGGSGGGGSEFDIQMTQSPSSLSASVGDRVTITCKASDHINNWLAWYQQKPGQAPKLLIYGATTLETGVPSRFSGSGSGTDYTLTISSLQPEDFATYYCQQSWNTPWTFGQGTKLEIKRLEDLKNVFPPEVAVFEPSEAEISHTQKATLVCLATGFYPDHVELSWWVNGKEVHSGVCTDPQPLKEQPALNDSRYCLSSRLRVSATFWQNPRNHFRCQVQFYGLSENDEWTQDRAKPVTQIVSAEAWGRADCGFTSESYQQGVLSATILYEILLGKATLYAVLVSALVLMAMVKRKDSRGRAKRSGSGATNFSLLKQAGDVEENPGPTSATMDWIWRILFLVGAATGAHSGPEVQLVESGGGLVQAGGSLRLSCAASGRTFSMGWFRQAPGKEREFVAAITYSGGSPYYADSVKGRFTISRDNAKNTVYLQMNSLKPEDTAVYYCAANPTYGSDWNAENWGQGTQVTVSSGSGGGGSGGGGSGGGGSFEQVQLQQPGAELVKPGASVKMSCKASGYAFSSYWINWMKQKPGQGLEWIGQIYPGDGDTNYNGKFKGRATLTADTSSSTAYMQLSSLTSEDSAVYFCARSITTVVGCAMDYWGQGTSVTVSSTRIQNPDPAVYQLRDSKSSDKSVCLFTDFDSQTNVSQSKDSDVYITDKCVLDMRSMDFKSNSAVAWSNKSDFACANAFNNSIIPEDTFFPSPESSCDVKLVEKSFETDTNLNFQNLSVIGFRILLLKVAGFNLLMTLRLWSSRAKRSGSGVKQTLNFDLLKLAGDVESNPGPSRGHMTEYKPTVRLATRDDVPRAVRTLAAAFADYPATRHTVDPDRHIERVTELQELFLTRVGLDIGKVWVADDGAAVAVWTTPESVEAGAVFAEIGPRMAELSGSRLAAQQQMEGLLAPHRPKEPAWFLATVGVSPDHQGKGLGSAVVLPGVEAAERAGVPAFLETSAPRNLPFYERLGFTVTADVEVPEGPRTWCMTRKPGA,NFAT-GFP ASSAY: LNCaP with PSMA-USC76-chVH-EZIP,LNCaP cells; LNCaP in presence of SAR adaptor PSMA-USC76-chVH-EZIP,+5.5
same,NFAT-GFP ASSAY: L363 with BCMA-FHVH-74-EZIP,L363 cells; L363 in presence of SAR adaptor BCMA-FHVH-74-EZIP,+3

# — patent US20230212319A1, “NOVEL ANTIGEN BINDING DOMAINS AND SYNTHETIC ANTIGEN RECEPTORS INCORPORATING THE SAME” (University of Southern California, priority 2020, published 2023)
